Reference: patent publication US20090068158A1, “THYMIDYLATE KINASE MUTANTS AND USES THEREOF” (priority 2005, published 2009)

Test: Enzymatic activity of tmpk mutants for AZT-MP
Assay type: biochemical, human

B1: R200A: modified human tmpk, R to A mutation at amino acid position 200 (SEQ ID NOS: 15 and 16) (protein, UniProt P23919 2-212, looked up, variant R200A)
Thymidylate kinase: AARRGALIVLEGVDRAGKSTQSRKLVEALCAAGHRAELLRFPERSTEIGKLLSSYLQKKSDVEDHSVHLLFSANRWEQVPLIKEKLSQGVTLVVDRYAFSGVAFTGAKENFSLDWCKQPDVGLPKPDLVLFLQLQLADAAKRGAFGHERYENGAFQERALRCFHQLMKDTTLNWKMVDASKSIEAVHEDIRVLSEDAIATATEKPLGELWK
enzymatic activity / catalytic conversion compared to wild-type tmpk (in words): superior enzymatic activity
